Our source for the stoichiometry N values is publication PMC10665946.

Test [1] deals with WT CC8 LukAB (leukocidin A/leukocidin B) heterodimer (S. aureus). As to the kind of experiment: negative stain electron microscopy; 0.03 mg/ml protein in TBS + 40% v/v MPD, RT 45 min; uranyl formate stain; 2D class averages.
For test [2], the target named is V113A LukB CC8 LukAB (S. aureus). As to the kind of experiment: negative stain electron microscopy; 0.03 mg/ml protein in TBS + 20% v/v MPD, RT 45 min; uranyl formate stain; 2D class averages.
For test [3] the target is unchanged. Put plainly: negative stain electron microscopy; 0.03 mg/ml protein in TBS + 40% v/v MPD, RT 45 min; uranyl formate stain; 2D class averages.

What is called stoichiometry N is the number of molecules, sites or subunits per partner or assembly. As to “WT CC8 LukAB (leukocidin A/leukocidin B) heterodimer (complex)”, the stoichiometry N in test [1] was determined as 8. As for V113A LukB CC8 LukAB (complex), the stoichiometry N in test [2] and in test [3] was 8 in each case.
